For assay [1], the target named is T1, CHO-K1-T1001细胞表达的人TIGIT (human, UniProt Q495A1 22-244).
T1 construct: whole, on cells; also called hTIGIT+细胞; CHO-K1 TIGIT+细胞系
T1 sequence (looked up): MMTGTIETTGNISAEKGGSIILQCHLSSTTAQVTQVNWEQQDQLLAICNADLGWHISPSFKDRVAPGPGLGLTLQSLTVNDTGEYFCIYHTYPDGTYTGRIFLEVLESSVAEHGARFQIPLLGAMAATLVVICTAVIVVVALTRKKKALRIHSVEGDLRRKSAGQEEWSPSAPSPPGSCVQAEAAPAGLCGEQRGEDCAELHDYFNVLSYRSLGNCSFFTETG
In words: cell ELISA on fixed hTIGIT+ CHO-K1 cells. For orientation: In an ELISA, binding on a coated surface is turned into a signal by an enzyme label.

Assay [2] deals with T2, 人TIGIT-hFc (human, UniProt Q495A1 22-141; P01857 99-330 = IgG part, limits assumed).
T2 construct: extracellular domain;domain: IgG1 Fc区域; also called hTIGIT
Kind of assay: blocking ELISA: Bio-CD155 on coated TIGIT-hFc.

For assay [3], the target named is T2, 人TIGIT-hFc. Kind of assay: blocking ELISA: Bio-CD155 on coated TIGIT-hFc; reference Ref1.
Assay [4] has as its target T1, CHO-K1-T1001细胞表达的人TIGIT. In words: cell ELISA on fixed hTIGIT+ CHO-K1 cells; reference Ref1.
The next assay addresses T3, LT023 (TIGIT/his) (human, UniProt Q495A1 22-141).
T3 construct: extracellular domain; Made in-house
T3 sequence: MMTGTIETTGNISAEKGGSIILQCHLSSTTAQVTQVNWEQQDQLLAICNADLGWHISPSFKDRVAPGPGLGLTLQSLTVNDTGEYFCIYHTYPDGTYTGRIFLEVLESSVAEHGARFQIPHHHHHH
Kind of assay: double sandwich ELISA: coated TIGIT/his, detection with PD-L1/mFc (Example 6), used on serum samples.

Assay [5] addresses T4, 人TIGIT重组蛋白 (hTIGIT; TIGIT-hFc 或 TIGIT-his) (human, UniProt Q495A1 22-141).
T4 construct: extracellular domain; not shown: C-terminal tag (-his, -hFc or -mFc)
T4 sequence (looked up): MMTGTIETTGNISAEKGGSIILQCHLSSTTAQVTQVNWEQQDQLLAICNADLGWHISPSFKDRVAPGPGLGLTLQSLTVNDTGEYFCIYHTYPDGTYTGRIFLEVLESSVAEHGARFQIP
In words: ELISA on coated antigen.

The next assay has as its target T5, 人PD-1(hFc/his tag) (human, UniProt Q15116 25-170).
T5 construct: extracellular domain; not shown: C-terminal tag (hFc or his)
In words: ELISA on coated antigen.

The target of assay [6] is T4, 人TIGIT重组蛋白 (hTIGIT; TIGIT-hFc 或 …). Kind of assay: ELISA on coated hTIGIT.
In assay [7] the target is T6, 恒河猴TIGIT-mFc (rhesus monkey; mouse, UniProt A0A5F8AKQ5 22-142; P01863 98-330 = IgG part).
T6 construct: also called RhTIGIT-mFc; RhTIGIT
In words: ELISA on coated RhTIGIT-mFc; reference Ref1.

The target of assay [8] is T1, CHO-K1-T1001细胞表达的人TIGIT. Kind of assay: cell ELISA on fixed hTIGIT+ CHO-K1 cells; reference Ref2.
Assay [9] deals with T6, 恒河猴TIGIT-mFc. In words: ELISA on coated RhTIGIT-mFc; reference Ref2.
In assay [10] the target is T2, 人TIGIT-hFc. In words: blocking ELISA: Bio-CD155 on coated TIGIT-hFc; reference Ref2.
Assay [11] deals with T4, 人TIGIT重组蛋白 (hTIGIT; TIGIT-hFc 或 …). Kind of assay: ELISA on coated hTIGIT; reference Ref2.
Assay [12] addresses T6, 恒河猴TIGIT-mFc. Kind of assay: ELISA on coated RhTIGIT-mFc.
The next assay has as its target T7, 小鼠TIGIT-his (mouse, UniProt P86176 29-148, limits assumed).
T7 construct: Bought reagent; also called mouse TIGIT-his; muTIGIT-his
T7 sequence: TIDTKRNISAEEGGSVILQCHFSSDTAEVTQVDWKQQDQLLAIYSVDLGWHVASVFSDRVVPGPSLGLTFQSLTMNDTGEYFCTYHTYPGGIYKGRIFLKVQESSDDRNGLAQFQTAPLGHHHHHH
Kind of assay: ELISA on coated antigen (Example 3).

Changes are numbered by the printed parent chain. “And” between values parts separate entries of the source, which are not always exact repeats. Identical values can stand only once.

What is called EC50 is the midpoint of the concentration-response curve. Low values mean greater potency, high ones weaker potency. In general, IC50 refers to the concentration at which inhibition is half-maximal. The low end stands for higher potency, the high end for lower potency.

T6 sequence (P01863 other isoform, or with tags, fused parts or gaps): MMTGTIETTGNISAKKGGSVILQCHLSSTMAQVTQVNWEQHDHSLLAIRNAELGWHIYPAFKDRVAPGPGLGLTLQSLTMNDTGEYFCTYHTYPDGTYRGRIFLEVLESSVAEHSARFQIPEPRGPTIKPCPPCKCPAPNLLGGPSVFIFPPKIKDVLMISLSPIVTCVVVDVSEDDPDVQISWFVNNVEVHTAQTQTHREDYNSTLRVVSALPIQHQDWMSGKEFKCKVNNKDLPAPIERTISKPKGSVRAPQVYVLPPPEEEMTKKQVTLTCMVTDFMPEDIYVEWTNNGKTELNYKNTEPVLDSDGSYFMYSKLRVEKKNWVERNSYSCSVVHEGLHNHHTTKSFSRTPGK
T5 sequence (Q15116 25-170): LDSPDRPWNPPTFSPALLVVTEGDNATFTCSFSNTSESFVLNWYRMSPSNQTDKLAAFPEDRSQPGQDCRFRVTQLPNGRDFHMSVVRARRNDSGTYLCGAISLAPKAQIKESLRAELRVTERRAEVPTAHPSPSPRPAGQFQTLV

B1: 人源化抗体mab22-h6 (antibody, human IgG1, kappa)
heavy: not shown
light: DIVMTQSPLSLPVTPGEPASISCRSSQSIVHNSGNTYLEWYLQKPGQSPKLLIYKVSNRFSGVPDRFSGSGSGTDFTLKISRVEAEDVGVYYCFQFSHVPRTFGGGTKVEIKRTVAAPSVFIFPPSDEQLKSGTASVVCLLNNFYPREAKVQWKVDNALQSGNSQESVTEQDSKDSTYSLSSTLTLSKADYEKHKVYACEVTHQGLSSPVTKSFNRGEC
notes: hIgG1, kappa
The molecule B1 had an EC50 with CHO-K1-T1001细胞表达的人TIGIT [1] of 13.3 pM. Moreover, half-maximal inhibition in the assay with 人TIGIT-hFc [2] (IC50) was put at 1440 pM. Moreover, in the assay with 人TIGIT-hFc [3], the “IC50 ratio to Ref1” value was found to be 0.44 fold. Further, the “EC50 ratio to Ref1” value in the assay with CHO-K1-T1001细胞表达的人TIGIT [4] turned out to be 0.5 fold.

B2: 双特异抗体LB621 (bispecific antibody)
heavy: not shown
light: B1 light
notes: Whole mab22-h6 antibody with an anti-PD-L1 (Atezo) scFv joined to its heavy chain; the printed heavy chain carries the scFv at the C-terminus with the last K changed to A
With B2, the binding result (in the assay with LT023 (TIGIT/his); in [5]) was “binds” throughout.

B3: 双特异抗体LB610 (bispecific antibody, human IgG1, kappa)
heavy: not shown
light: B1 light
Consider B3, for which the binding result (in assay [5]; in the assay with 人PD-1(hFc/his tag)) was “binds” throughout.

B4: 双特异抗体LB615 (bispecific antibody)
heavy: not shown
light: B1 light
As to B4, the binding result in assay [5] is on record as “binds”.

B5: 人源化抗体mab22-h1 (antibody, human IgG1, kappa, V domains shown)
VH: EVQLVESGGGLVQPGGSLRLSCAASGFTFSSYTMSWVRQAPGKGLEWVSEISSSGGSTYYPDTVKGRFTISRDNSKNTLYLQMNSLRAEDTAVYYCARPGLGAWFAYWGQGTLVTVSS
VL: DIVMTQSPLSLPVTPGEPASISCRSSQSIVHNSGNTYLEWYLQKPGQSPQLLIYKVSNRFSGVPDRFSGSGSGTDFTLKISRVEAEDVGVYYCFQFSHVPRTFGGGTKVEIKR
notes: hIgG1, kappa
In the case of B5, the binding result (with CHO-K1-T1001细胞表达的人TIGIT [1]; in assay [6]) was “binds” in each case.

B6: 嵌合抗体mab22c (antibody, human IgG1, kappa, V domains shown)
VH: EVKLVESGGGLVQPGGSLKLSCVASGFTFSSYTMSWVRQTPEKRLELVAEISSSGGSTYYPDTVKGRFTISRDNAKNTLFLQMNSLKSEDTAMYYCARPGLGAWFAYWGQGTLVTVSA
VL: DVLMTQTPLSLPVSLGDQASISCRSSQSIVHNSGNTYLEWYLQKPGQSPKLLIYKVSNRFSGVPDRFSGSGSGTDFTLKISRVEAEDLGIYYCFQFSHVPRTFGGGTKLEIKR
notes: also called 人鼠嵌合抗体mab22c
In the case of B6, in the assay with 恒河猴TIGIT-mFc [7], the “EC50 ratio to Ref1” value is around 2 fold. Also, the “EC50 ratio to Ref2” value in the assay with CHO-K1-T1001细胞表达的人TIGIT [8] was 0.47 fold; with 恒河猴TIGIT-mFc [9], around 2 fold; in assay [11], 0.68 fold. Besides, the EC50 in the assay with CHO-K1-T1001细胞表达的人TIGIT [1] is 101 pM; in assay [6] it was 270 pM and 585 pM; with 恒河猴TIGIT-mFc [12], 658 pM. The molecule further yielded an IC50 with 人TIGIT-hFc [2] of 541 pM. The “IC50 ratio to Ref2” value in the assay with 人TIGIT-hFc [10] is 0.51 fold. Besides, the “IC50 ratio to Ref1” value with 人TIGIT-hFc [3] worked out at 0.46 fold.

B7: 人源化抗体mab22-h2 (antibody, human IgG1, kappa, V domains shown)
VH: B5 VH
VL: B5 VL with I2V, Q50K
notes: hIgG1, kappa
Turning to B7, the binding result (with CHO-K1-T1001细胞表达的人TIGIT [1]; in assay [6]) was “binds” each time.

B8: IF091 (鼠源单克隆抗体mab22) (antibody, V domains shown)
VH: B6 VH
VL: DVLMTQTPLSLPVSLGDQASISCRSSQSIVHNSGNTYLEWYLQKPGQSPKLLIYKVSNRFSGVPDRFSGSGSGTDFTLKISRVEAEDLGIYYCFQFSHVPRTFGGGTKLEIK
notes: Mouse antibody purified from ascites
B8: the binding result with 小鼠TIGIT-his was “no binding (tested: 10μg/mL起始，5倍梯度稀释)”.

Values taken from patent CN116355095A (SHANGHAI L&L VISION BIOPHARMACEUTICALS CO LTD, dated 2023).
